We go through three substances from patent EP1113813B1.

Several values for one entry are separate records, joined by “and”; a condition that tells them apart may be missing. Identical values can stand only once.

Experiment [1] deals with Zot binding sites on human T lymphocytes (CD3+) (human). The experiment can be described thus: flow cytometry; […] (10 µl); […]. A general note: In flow cytometry, cells or beads pass a laser one at a time.
In experiment [2] the target is Zot binding sites (surface receptor) on human monocytes/macrophages (CD14+) (human). Description: flow cytometry; […] (10 µl); […].
For experiment [3], the target named is Zot binding sites on human T lymphocytes (CD3+) (human). Description: real-time flow cytometry at 37°C, Zot-FITC 40 µg/ml, CD3 gate.
The target of experiment [4] is Zot binding sites (surface receptor) on human monocytes/macrophages (CD14+) (human). Description: 4-color flow cytometry, 40 µg/ml Zot-FITC, 30 min at 37°C, CD14+ gate.
In experiment [5] the target is Zot binding sites on human T lymphocytes (CD3+) (human). The experiment can be described thus: flow cytometry, MFI converted with Quantum 26 MESF kit, saturation conditions.
Experiment [6] deals with Zot binding sites (surface receptor) on human monocytes/macrophages (CD14+) (human). The description is as above.
Experiment [7] deals with Zot binding sites on human T lymphocytes (CD3+) (human). The experiment can be described thus: flow cytometry, increasing concentrations of Zot-FITC on human PBMC.
The target of experiment [8] is Zot binding sites (surface receptor) on human monocytes/macrophages (CD14+) (human). The description is as above.
Experiment [9] has as its target Zot binding sites on human T lymphocytes (CD3+) (human). The experiment can be described thus: flow cytometry, MESF calibration, several volunteers.
Experiment [10] has as its target Zot binding sites (surface receptor) on human monocytes/macrophages (CD14+) (human). Described as above.
Experiment [11] has the same target. Description: real-time flow cytometry at 37°C, Zot-FITC 40 µg/ml, CD14 gate.
The target is the same in experiment [12].

As for “purified Zot (cleaved from MBP-Zot with Factor Xa, Example 1) (from UniProt P38442 9-399) (ligand)”, the percent decrease of Zot-FITC binding in [1] and in [2] was 33% each time.
Regarding “Zot-FITC (6xHis-Zot fusion protein conjugated to fluorescein isothiocyanate, Examples 4-7) (from UniProt P38442 1-399) (ligand)”, the time to reach equilibrium in experiment [3] and in experiment [11] was below 2 min each time. In experiment [4], the fold binding against T or B lymphocytes is 5 fold and 8 fold. Moreover, the values for the Zot-binding sites/cell in experiment [5] and in experiment [6] were 9000 sites/cell and 106000 sites/cell, respectively. The concentration at which saturation is reached in experiment [7] and in experiment [8] was 0.5 pM each time. In addition, the Zot binding sites/cell (mean of several volunteers) in experiment [9] was 10700 sites/cell; in experiment [10], 105000 sites/cell.
As to “6xHis-Zot fusion protein (purified Zot, unlabeled) (from UniProt P38442 1-399) (ligand)”, the percent suppression of Zot-FITC mean fluorescence intensity in experiment [12] was 24% and 43%.
